Assay results taken from publication PMC10816986, “The Role of Key Amino Acids of the Human Fe(II)/2OG-Dependent Dioxygenase ALKBH3 in Structural Dynamics and Repair Activity toward Methylated DNA” (International Journal of Molecular Sciences, 2024).
Residue numbers refer to the chain shown, from its start.

Key:
[1] = tested on: m3C_FRET substrate (m3C-containing DNA); set-up: method as in PMID 31847292; details: AlkB-ssDNA, pre-steady-state; cited from earlier work
[2] = set-up: method as in PMID 22443471; details: cited from earlier work
[3] = set-up: method as in PMID 35956910, doi:10.1134/S1068162019060190; details: previous investigations; read-out: Kd for complexes with transitional metals and 2OG; cited from earlier work
ALKBH3 wt [4] = target: T1, ALKBH3 wt (Homo sapiens, UniProt Q96Q83 1-286); assay: stopped-flow FRET kinetics (DynaFit); Fe(II), 2OG; enzyme-product complex; Titration: 50 mM HEPES-KOH pH 7.8, 50 mM KCl, 10 mM MgCl2, 2 mM EDTA, 25 °C, 1 µM apoprotein; stopped-flow: with Fe(II) and 2OG, 0.5-4.0 µM DNA (buffer not in material); details: protein: recombinant; tags: N-terminal His-tag (pET28a); label: 5'-6-FAM, 3'-BHQ1; single strand
T1 sequence: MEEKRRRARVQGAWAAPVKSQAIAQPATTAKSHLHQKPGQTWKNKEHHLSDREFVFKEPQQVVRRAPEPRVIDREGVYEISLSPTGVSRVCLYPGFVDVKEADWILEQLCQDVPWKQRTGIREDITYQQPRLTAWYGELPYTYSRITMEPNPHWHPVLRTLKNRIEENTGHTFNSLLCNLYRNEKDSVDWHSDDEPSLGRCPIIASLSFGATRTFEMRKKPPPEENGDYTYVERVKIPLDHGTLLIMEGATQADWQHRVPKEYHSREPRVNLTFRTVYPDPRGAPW

ALKBH3 Y143F [5] = target: T2, ALKBH3 Y143F (Homo sapiens, UniProt Q96Q83 1-286, Y143F); assay: as above; details: protein: recombinant; tags: N-terminal His-tag (pET28a); label: 5'-6-FAM, 3'-BHQ1; single strand
T2 sequence: T1 sequence with Y143F

[6] = tested on: single-stranded DNA substrate m3C_FAM; set-up: method as in PMID 35956910; details: similar m3C-containing substrate, identical conditions; cited from earlier work
ALKBH3 wt [7] = target: T1, ALKBH3 wt; assay: stopped-flow FRET kinetics (DynaFit); Fe(II), 2OG; overall Ka = K1+K1K2+K1K2K3; Titration: 50 mM HEPES-KOH pH 7.8, 50 mM KCl, 10 mM MgCl2, 2 mM EDTA, 25 °C, 1 µM apoprotein; stopped-flow: with Fe(II) and 2OG, 0.5-4.0 µM DNA (buffer not in material); details: protein: recombinant; tags: N-terminal His-tag (pET28a); label: 5'-6-FAM, 3'-BHQ1; single strand
ALKBH3 Y143F [8] = target: T2, ALKBH3 Y143F; assay: as above; details: protein: recombinant; tags: N-terminal His-tag (pET28a); label: 5'-6-FAM, 3'-BHQ1; single strand
ALKBH3 L177A = target: T3, ALKBH3 L177A (Homo sapiens, UniProt Q96Q83 1-286, L177A); assay: intrinsic Trp fluorescence titration; apoprotein, 2 mM EDTA, no Fe(II)/2OG; Titration: 50 mM HEPES-KOH pH 7.8, 50 mM KCl, 10 mM MgCl2, 2 mM EDTA, 25 °C, 1 µM apoprotein; stopped-flow: with Fe(II) and 2OG, 0.5-4.0 µM DNA (buffer not in material); details: protein: recombinant; (Ni-chelating purification); single strand
T3 sequence: T1 sequence with L177A

ALKBH3 wt [9] = target: T1, ALKBH3 wt; assay: as above; details: protein: recombinant; tags: N-terminal His-tag (pET28a); single strand
ALKBH3 Y143A = target: T4, ALKBH3 Y143A (Homo sapiens, UniProt Q96Q83 1-286, Y143A); assay: as above; details: protein: recombinant; tags: N-terminal His-tag (pET28a); single strand
T4 sequence: T1 sequence with Y143A

ALKBH3 H191A = target: T5, ALKBH3 H191A (Homo sapiens, UniProt Q96Q83 1-286, H191A); assay: as above; details: protein: recombinant; (Ni-chelating purification); single strand
T5 sequence: T1 sequence with H191A

B1: AlkB: E. coli AlkB dioxygenase, literature comparison (protein, UniProt P05050 1-216, looked up)
Alpha-ketoglutarate-dependent …: MLDLFADAEPWQEPLAAGAVILRRFAFNAAEQLIRDINDVASQSPFRQMVTPGGYTMSVAMTNCGHLGWTTHRQGYLYSPIDPQTNKPWPAMPQSFHNLCQRAATAAGYPDFQPDACLINRYAPGAKLSLHQDKDEPDLRAPIVSVSLGLPAIFQFGGLKRNDPLKRLLLEHGDVVVWGGESRLFYHGIQPLKAGFHPLTIDCRYNLTFRQAGKKE
kr (hydroxylation of the substrate's methyl group) [1]: 0.19 s⁻¹ | Tm [2]: 54 °C | Kd [3]: 15 to 50 µM

ACAGGATCCGGCATA (ssDNA, none (m3C demethylated to C)) [m3C_FRET repaired product]
Kd (ALKBH3 wt [4]): 0.72 µM | Kd (ALKBH3 Y143F [5]): 0.083 µM

B2: ALKBH2: human AlkB homolog 2 dioxygenase, literature comparison (protein, UniProt Q6NS38 1-261, looked up)
DNA oxidative demethylase …: MDRFLVKGAQGGLLRKQEEQEPTGEEPAVLGGDKESTRKRPRREAPGNGGHSAGPSWRHIRAEGLDCSYTVLFGKAEADEIFQELEKEVEYFTGALARVQVFGKWHSVPRKQATYGDAGLTYTFSGLTLSPKPWIPVLERIRDHVSGVTGQTFNFVLINRYKDGCDHIGEHRDDERELAPGSPIASVSFGACRDFVFRHKDSRGKSPSRRVAVVRLPLAHGSLLMMNHPTNTHWYHSLPVRKKVLAPRVNLTFRKILLTKK
observed rate constant for demethylation, kobs [6]: 0.22 min⁻¹ | Kd [3]: 15 to 50 µM

ACAGGATCCGGCATA (ssDNA, N3-methylcytosine at position 9) [m3C_FRET]
Ka (ALKBH3 wt [7]): 1.9e+06 M⁻¹ | Ka (ALKBH3 Y143F [8]): 1.4e+06 M⁻¹

ACAGGATCCGGCATA (ssDNA, N3-methylcytosine at position 9) [m3C]
Kd (ALKBH3 L177A): 5.7 ± 0.3 µM | Kd (ALKBH3 wt [9]): 2.8 ± 0.1 µM | Kd (ALKBH3 Y143A): 6.3 ± 0.6 µM | Kd (ALKBH3 H191A): 4.3 ± 0.3 µM
